Consider one substance from publication PMC10501185.

This assay deals with Lymphocytic choriomeningitis virus RING finger Z matrix protein (Lymphocytic choriomeningitis virus (LCMV)) (UniProt P18541). Briefly: cryo-EM structure.
Sequence of UniProt P18541 (P18541 whole entry): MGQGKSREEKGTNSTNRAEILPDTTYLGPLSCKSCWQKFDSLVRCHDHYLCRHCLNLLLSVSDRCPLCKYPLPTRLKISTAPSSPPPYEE

The substance “Lymphocytic choriomeningitis virus large polymerase (L), P14240 1-2210” showed a stoichiometry N of 1.
